Each block holds one substance with its values, some of them ahead of it.
Legend:
[1] = molecular target: VEGF-165 (VEGF-A165, Sino Biological) (UniProt P15692); experiment: SPR (Biacore T200); settings: pH 5.5 vs 7.4, 0.15 M NaCl, 67 mM phosphate, the same buffer adjusted to pH 7.4 with 1 M NaOH
[2] = molecular target: Truncated monomeric His-tagged FcRn (UniProt P55899)
[3] = molecular target: FcRn coupled to the resin of the affinity chromatography column (UniProt P55899); experiment: analytical FcRn affinity chromatography; protein (1 mg/ml, alone or preincubated with cognate Ag) injected on a column with FcRn-coupled resin at pH 5.5 (20 mM MES, 140 mM NaCl), eluted by a linear pH gradient to pH 8.8 (20 mM Tris-HCl, 140 mM NaCl) over 110 min
etanercept (Enbrel) = etanercept (Enbrel) (UniProt P20333); experiment: SPR; Biacore T200; IgG1, Fc or ABTs immobilised (~400 RU) on CM5 by amine coupling; monomeric His-tagged FcRn (2000-1.95 nM) injected at pH 5.5 (67 mM phosphate, 0.15 M NaCl, 0.005% Tween20), 50 μl/min; 1:1 Langmuir binding model
[4] = molecular target: anti-NIP IgG1 (human | mouse); experiment: as above
[5] = molecular target: IgG1-derived Fc fragment (human); experiment: as above
[6] = molecular target: adalimumab (Humira) (human); experiment: as above
[7] = molecular target: infliximab (Remicade) (human); experiment: as above
aflibercept (Eylea) = aflibercept (Eylea) (UniProt P17948); experiment: as above
[8] = molecular target: bevacizumab (Avastin) (human); experiment: as above
[9] = molecular target: Truncated monomeric His-tagged FcRn (UniProt P55899); remark: listed apart in the source

Chain of VEGF-165 (VEGF-A165, Sino Biological) (P15692 whole entry, the tested form may be a part): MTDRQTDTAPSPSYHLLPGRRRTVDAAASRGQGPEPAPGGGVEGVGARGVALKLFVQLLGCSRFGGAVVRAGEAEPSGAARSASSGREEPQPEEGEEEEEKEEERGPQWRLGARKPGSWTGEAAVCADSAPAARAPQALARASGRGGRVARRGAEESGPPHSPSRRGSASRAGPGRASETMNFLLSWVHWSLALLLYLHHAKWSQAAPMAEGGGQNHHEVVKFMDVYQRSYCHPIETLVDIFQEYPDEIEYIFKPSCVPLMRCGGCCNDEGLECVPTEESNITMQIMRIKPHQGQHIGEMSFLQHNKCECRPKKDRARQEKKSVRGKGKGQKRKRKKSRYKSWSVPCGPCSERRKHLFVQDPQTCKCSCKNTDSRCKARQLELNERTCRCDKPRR
Chain of aflibercept (Eylea) (from UniProt P17948 129-229; P35968 1-764) (Fc fusion) (P17948 other isoform, or with tags, fused parts or gaps): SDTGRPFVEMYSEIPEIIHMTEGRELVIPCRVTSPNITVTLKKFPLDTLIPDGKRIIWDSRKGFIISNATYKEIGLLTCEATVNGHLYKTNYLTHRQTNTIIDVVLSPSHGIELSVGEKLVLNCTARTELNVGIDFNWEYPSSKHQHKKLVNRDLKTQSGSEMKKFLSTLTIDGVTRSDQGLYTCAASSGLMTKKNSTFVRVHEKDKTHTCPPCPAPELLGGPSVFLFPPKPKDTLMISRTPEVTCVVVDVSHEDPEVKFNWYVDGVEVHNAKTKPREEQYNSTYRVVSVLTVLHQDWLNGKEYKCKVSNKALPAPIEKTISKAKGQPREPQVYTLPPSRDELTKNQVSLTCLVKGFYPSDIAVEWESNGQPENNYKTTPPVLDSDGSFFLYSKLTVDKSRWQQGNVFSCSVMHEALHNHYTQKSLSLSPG

Substance: Aflibercept (Eylea), VEGFR1 D2-VEGFR2 D3-IgG1 Fc fusion
on-rate (sensorgram comparison), fold change pH 5.5 over pH 7.4 [1]: acidic pH enhanced the on-rate more than 5-fold

Substance: Bevacizumab (Avastin)
on-rate (sensorgram comparison), fold change pH 5.5 over pH 7.4 [1]: acidic pH enhanced the on-rate more than 5-fold

reduction of the recycling of 400 nM anti-NIP IgG1 (m4) by titrated Fc fragment (6400-1 nM) in HERA, HMEC-1-FcRn cells preloaded with IVIg, uptake at pH 6.0 [2]: 32.9 nM
elution peak pH [3]: 7.13 pH
Substance: IgG1-derived Fc fragment (domain or fragment)

Kd (etanercept (Enbrel)): 380 nM
koff (etanercept (Enbrel)): 0.001 s⁻¹
kon (etanercept (Enbrel)): 31000 M⁻¹ s⁻¹
Kd [4]: 330 nM
Kd [5]: 230 nM
Kd [6]: 430 nM
koff [6]: 0.001 s⁻¹
kon [6]: 42000 M⁻¹ s⁻¹
Kd [7]: 310 nM
koff [7]: 0.002 s⁻¹
kon [7]: 35000 M⁻¹ s⁻¹
Kd (aflibercept (Eylea)): 350 nM
koff (aflibercept (Eylea)): 0.001 s⁻¹
kon (aflibercept (Eylea)): 30000 M⁻¹ s⁻¹
Kd [8]: 380 nM
koff [8]: 0.001 s⁻¹
kon [8]: 32000 M⁻¹ s⁻¹
Substance: Truncated monomeric His-tagged FcRn (from UniProt P55899 24-365) (receptor)

elution peak pH [3]: 7.21 pH
Substance: adalimumab (Humira) (antibody)

elution peak pH [3]: 7.01 pH
Substance: aflibercept (Eylea) (from UniProt P17948 129-229; P35968 1-764) (Fc fusion)

cellular uptake in HERA (HMEC-1-FcRn cells) after 2 h incubation, relative to non-engineered anti-NIP IgG1 [9]: 15 fold
Substance: anti-NIP IgG1 Fc-engineered variant M252Y/S254T/T256E/H433K/N434F (antibody)

elution peak pH [3]: 7.2 pH
Substance: bevacizumab (Avastin) (antibody)

elution peak pH [3]: 6.88 pH
Substance: etanercept (Enbrel) (from UniProt P20333 23-257) (Fc fusion)

elution peak pH [3]: 7.15 pH
Substance: infliximab (Remicade) (antibody)
